The values that follow come from patent US20220064674A1 (MILTENYI BIOTEC B V, published 2022).

The target of this test is T1, CD62L (L-selectin) expressed on cells (human, UniProt P14151 39-372).
T1 construct: whole, on cells; also called HT1080-CD62L
T1 sequence: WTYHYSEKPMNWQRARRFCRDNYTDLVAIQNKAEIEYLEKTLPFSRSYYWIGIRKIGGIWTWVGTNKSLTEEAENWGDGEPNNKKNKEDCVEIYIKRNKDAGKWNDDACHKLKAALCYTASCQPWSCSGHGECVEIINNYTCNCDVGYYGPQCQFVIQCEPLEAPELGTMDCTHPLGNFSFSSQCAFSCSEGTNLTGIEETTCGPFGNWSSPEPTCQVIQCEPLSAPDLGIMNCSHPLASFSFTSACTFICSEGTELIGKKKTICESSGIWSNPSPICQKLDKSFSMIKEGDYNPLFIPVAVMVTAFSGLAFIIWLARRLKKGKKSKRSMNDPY
In words: competition and binding assay on PBMC, flow cytometry. In general terms: A flow cytometer gives signals particle by particle.

B1: CD62L specific antibody derived from the same clone (parental antibody) (antibody, V domains shown)
VH: EVKLVESGGGLVKPGGSLKLSCAASGFTFSSYAMSWVRQTPEKRLEWVASISSGGSTYYPDSVKGRFTISRDNARNILYLQMSSLRSEDTAMYYCARDDDGYYDYWGQGTTLTVSS
VL: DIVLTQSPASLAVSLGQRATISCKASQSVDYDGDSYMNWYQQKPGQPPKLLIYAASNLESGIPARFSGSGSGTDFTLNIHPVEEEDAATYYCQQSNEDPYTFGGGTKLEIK
Take B1: the binding result is reported as “binds”.
